Measured values as given in publication PMC314469, “Protein Interaction Networks by Proteome Peptide Scanning” (PLoS Biology, 2004).

Key:
Test in all cases: SPOT array
[1] = biological target: T1, Boi2 SH3 (BOI2_YEAST), P39969
T1 chain: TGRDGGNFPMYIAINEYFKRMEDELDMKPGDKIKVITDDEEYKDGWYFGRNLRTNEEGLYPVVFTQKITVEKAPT

[2] = biological target: T2, Rvs167 SH3 (RV167_YEAST), P39743
T2 chain: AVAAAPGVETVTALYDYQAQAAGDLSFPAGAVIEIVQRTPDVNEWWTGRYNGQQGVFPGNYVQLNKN

[3] = biological target: Sho1 SH3 (SHO1_YEAST), P40073
[4] = biological target: T3, Myo5 SH3 (MYO5_YEAST), Q04439
T3 chain: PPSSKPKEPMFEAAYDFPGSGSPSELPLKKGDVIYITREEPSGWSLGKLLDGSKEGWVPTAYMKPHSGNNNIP

[5] = biological target: T4, Yhr016c SH3 (YSC84_YEAST), P32793
T4 chain: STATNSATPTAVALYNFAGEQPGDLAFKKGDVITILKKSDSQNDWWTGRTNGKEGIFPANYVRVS

[6] = biological target: T5, Yfr024 SH3 (LSB3_YEAST), P43603
T5 chain: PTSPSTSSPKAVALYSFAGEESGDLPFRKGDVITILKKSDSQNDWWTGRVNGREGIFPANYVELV

[7] = biological target: T6, Boi1 SH3 (BOI1_YEAST), P38041
T6 chain: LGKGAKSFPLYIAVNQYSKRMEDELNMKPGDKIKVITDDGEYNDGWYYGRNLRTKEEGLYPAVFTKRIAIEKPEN

Chain of Sho1 SH3 (SHO1_YEAST), P40073 (P40073 295-366): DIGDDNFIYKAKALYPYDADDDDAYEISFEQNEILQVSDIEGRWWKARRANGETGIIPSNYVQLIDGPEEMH

B1: YBR096W 107-120 (peptide)
chain: MLNSKHYPYIPVAN
normalised SPOT signal, Boehringer light units (BLU); mean over the file's lines of this peptide [1]: 50
normalised SPOT signal, Boehringer light units (BLU); mean over the file's lines of this peptide [2]: 368
normalised SPOT signal, Boehringer light units (BLU); mean over the file's lines of this peptide [3]: 35
normalised SPOT signal, Boehringer light units (BLU); mean over the file's lines of this peptide [4]: 171
normalised SPOT signal, Boehringer light units (BLU); mean over the file's lines of this peptide [5]: 128
normalised SPOT signal, Boehringer light units (BLU); mean over the file's lines of this peptide [6]: 595
normalised SPOT signal, Boehringer light units (BLU); mean over the file's lines of this peptide [7]: 57.3

B2: YGR221C 455-468 (peptide)
chain: LTSFKGRPKPPKTL
normalised SPOT signal, Boehringer light units (BLU); mean over the file's lines of this peptide [1]: 12.9
normalised SPOT signal, Boehringer light units (BLU); mean over the file's lines of this peptide [2]: 50.5
normalised SPOT signal, Boehringer light units (BLU); mean over the file's lines of this peptide [3]: 189
normalised SPOT signal, Boehringer light units (BLU); mean over the file's lines of this peptide [4]: 328
normalised SPOT signal, Boehringer light units (BLU); mean over the file's lines of this peptide [5]: 23.2
normalised SPOT signal, Boehringer light units (BLU); mean over the file's lines of this peptide [6]: 216
normalised SPOT signal, Boehringer light units (BLU); mean over the file's lines of this peptide [7]: 710

B3: YDR098C 199-212 (peptide)
chain: MLFMKGSPSEPKSG
normalised SPOT signal, Boehringer light units (BLU); mean over the file's lines of this peptide [1]: 128
normalised SPOT signal, Boehringer light units (BLU); mean over the file's lines of this peptide [2]: 377
normalised SPOT signal, Boehringer light units (BLU); mean over the file's lines of this peptide [3]: 59.6
normalised SPOT signal, Boehringer light units (BLU); mean over the file's lines of this peptide [4]: 251
normalised SPOT signal, Boehringer light units (BLU); mean over the file's lines of this peptide [5]: 262
normalised SPOT signal, Boehringer light units (BLU); mean over the file's lines of this peptide [6]: 1090
normalised SPOT signal, Boehringer light units (BLU); mean over the file's lines of this peptide [7]: 30.9

B4: YDR091C 417-430 (peptide)
chain: MKPQKIAPKFPGTV
normalised SPOT signal, Boehringer light units (BLU); mean over the file's lines of this peptide [1]: 31.6
normalised SPOT signal, Boehringer light units (BLU); mean over the file's lines of this peptide [2]: 137
normalised SPOT signal, Boehringer light units (BLU); mean over the file's lines of this peptide [3]: 142
normalised SPOT signal, Boehringer light units (BLU); mean over the file's lines of this peptide [4]: 416
normalised SPOT signal, Boehringer light units (BLU); mean over the file's lines of this peptide [5]: 40.5
normalised SPOT signal, Boehringer light units (BLU); mean over the file's lines of this peptide [6]: 394
normalised SPOT signal, Boehringer light units (BLU); mean over the file's lines of this peptide [7]: 1110

B5: YGL065C 457-470 (peptide)
chain: MAFIKILPNNPWPF
normalised SPOT signal, Boehringer light units (BLU); mean over the file's lines of this peptide [1]: 0
normalised SPOT signal, Boehringer light units (BLU); mean over the file's lines of this peptide [2]: 46.5
normalised SPOT signal, Boehringer light units (BLU); mean over the file's lines of this peptide [3]: 166
normalised SPOT signal, Boehringer light units (BLU); mean over the file's lines of this peptide [4]: 59.9
normalised SPOT signal, Boehringer light units (BLU); mean over the file's lines of this peptide [5]: 4.3
normalised SPOT signal, Boehringer light units (BLU); mean over the file's lines of this peptide [6]: 75.2
normalised SPOT signal, Boehringer light units (BLU); mean over the file's lines of this peptide [7]: 44.1

B6: YJR066W 21-34 (peptide)
chain: MDMDRNVPLAPNLN
normalised SPOT signal, Boehringer light units (BLU); mean over the file's lines of this peptide [1]: 31.4
normalised SPOT signal, Boehringer light units (BLU); mean over the file's lines of this peptide [2]: 30.8
normalised SPOT signal, Boehringer light units (BLU); mean over the file's lines of this peptide [3]: 30.7
normalised SPOT signal, Boehringer light units (BLU); mean over the file's lines of this peptide [4]: 91.4
normalised SPOT signal, Boehringer light units (BLU); mean over the file's lines of this peptide [5]: 77.5
normalised SPOT signal, Boehringer light units (BLU); mean over the file's lines of this peptide [6]: 475
normalised SPOT signal, Boehringer light units (BLU); mean over the file's lines of this peptide [7]: 41.3

B7: YJL066C 98-111 (peptide)
chain: LVPSKAIPPLPQLD
normalised SPOT signal, Boehringer light units (BLU); mean over the file's lines of this peptide [1]: 51.2
normalised SPOT signal, Boehringer light units (BLU); mean over the file's lines of this peptide [2]: 28.6
normalised SPOT signal, Boehringer light units (BLU); mean over the file's lines of this peptide [3]: 102
normalised SPOT signal, Boehringer light units (BLU); mean over the file's lines of this peptide [4]: 558
normalised SPOT signal, Boehringer light units (BLU); mean over the file's lines of this peptide [5]: 26
normalised SPOT signal, Boehringer light units (BLU); mean over the file's lines of this peptide [6]: 226
normalised SPOT signal, Boehringer light units (BLU); mean over the file's lines of this peptide [7]: 61.8

B8: YPL111W 171-184 (peptide)
chain: MGLNKDVPHSPESL
normalised SPOT signal, Boehringer light units (BLU); mean over the file's lines of this peptide [1]: 50.6
normalised SPOT signal, Boehringer light units (BLU); mean over the file's lines of this peptide [2]: 251
normalised SPOT signal, Boehringer light units (BLU); mean over the file's lines of this peptide [3]: 19.1
normalised SPOT signal, Boehringer light units (BLU); mean over the file's lines of this peptide [4]: 99.4
normalised SPOT signal, Boehringer light units (BLU); mean over the file's lines of this peptide [5]: 242
normalised SPOT signal, Boehringer light units (BLU); mean over the file's lines of this peptide [6]: 733
normalised SPOT signal, Boehringer light units (BLU); mean over the file's lines of this peptide [7]: 146

B9: YBL076C 285-298 (peptide)
chain: LVGLKYEPLFPYFA
normalised SPOT signal, Boehringer light units (BLU); mean over the file's lines of this peptide [1]: 108
normalised SPOT signal, Boehringer light units (BLU); mean over the file's lines of this peptide [2]: 35.1
normalised SPOT signal, Boehringer light units (BLU); mean over the file's lines of this peptide [3]: 76.6
normalised SPOT signal, Boehringer light units (BLU); mean over the file's lines of this peptide [4]: 125
normalised SPOT signal, Boehringer light units (BLU); mean over the file's lines of this peptide [5]: 25.3
normalised SPOT signal, Boehringer light units (BLU); mean over the file's lines of this peptide [6]: 26.7
normalised SPOT signal, Boehringer light units (BLU); mean over the file's lines of this peptide [7]: 50.5

B10: YDR104C 798-811 (peptide)
chain: MKAYRANPPLPIDS
normalised SPOT signal, Boehringer light units (BLU); mean over the file's lines of this peptide [1]: 133
normalised SPOT signal, Boehringer light units (BLU); mean over the file's lines of this peptide [2]: 145
normalised SPOT signal, Boehringer light units (BLU); mean over the file's lines of this peptide [3]: 231
normalised SPOT signal, Boehringer light units (BLU); mean over the file's lines of this peptide [4]: 123
normalised SPOT signal, Boehringer light units (BLU); mean over the file's lines of this peptide [5]: 615
normalised SPOT signal, Boehringer light units (BLU); mean over the file's lines of this peptide [6]: 938
normalised SPOT signal, Boehringer light units (BLU); mean over the file's lines of this peptide [7]: 132

B11: YML058W 28-41 (peptide)
chain: MAEFRRVPLPPMAE
normalised SPOT signal, Boehringer light units (BLU); mean over the file's lines of this peptide [1]: 64.1
normalised SPOT signal, Boehringer light units (BLU); mean over the file's lines of this peptide [2]: 30400
normalised SPOT signal, Boehringer light units (BLU); mean over the file's lines of this peptide [3]: 57.5
normalised SPOT signal, Boehringer light units (BLU); mean over the file's lines of this peptide [4]: 443
normalised SPOT signal, Boehringer light units (BLU); mean over the file's lines of this peptide [5]: 7260
normalised SPOT signal, Boehringer light units (BLU); mean over the file's lines of this peptide [6]: 30500
normalised SPOT signal, Boehringer light units (BLU); mean over the file's lines of this peptide [7]: 59.6

B12: YDR335W 779-792 (peptide)
chain: LWRPRIVPILPYIT
normalised SPOT signal, Boehringer light units (BLU); mean over the file's lines of this peptide [1]: 1870
normalised SPOT signal, Boehringer light units (BLU); mean over the file's lines of this peptide [2]: 627
normalised SPOT signal, Boehringer light units (BLU); mean over the file's lines of this peptide [3]: 112
normalised SPOT signal, Boehringer light units (BLU); mean over the file's lines of this peptide [4]: 1050
normalised SPOT signal, Boehringer light units (BLU); mean over the file's lines of this peptide [5]: 331
normalised SPOT signal, Boehringer light units (BLU); mean over the file's lines of this peptide [6]: 1540
normalised SPOT signal, Boehringer light units (BLU); mean over the file's lines of this peptide [7]: 8230

B13: YMR266W 737-750 (peptide)
chain: MDGIKELPEFPIKK
normalised SPOT signal, Boehringer light units (BLU); mean over the file's lines of this peptide [1]: 0.9
normalised SPOT signal, Boehringer light units (BLU); mean over the file's lines of this peptide [2]: 32.2
normalised SPOT signal, Boehringer light units (BLU); mean over the file's lines of this peptide [3]: 3820
normalised SPOT signal, Boehringer light units (BLU); mean over the file's lines of this peptide [4]: 138
normalised SPOT signal, Boehringer light units (BLU); mean over the file's lines of this peptide [5]: 40.3
normalised SPOT signal, Boehringer light units (BLU); mean over the file's lines of this peptide [6]: 402
normalised SPOT signal, Boehringer light units (BLU); mean over the file's lines of this peptide [7]: 25.9

B14: YAL054C 43-56 (peptide)
chain: LTSVKIVPQRPISD
normalised SPOT signal, Boehringer light units (BLU); mean over the file's lines of this peptide [1]: 54.6
normalised SPOT signal, Boehringer light units (BLU); mean over the file's lines of this peptide [2]: 244
normalised SPOT signal, Boehringer light units (BLU); mean over the file's lines of this peptide [3]: 15.3
normalised SPOT signal, Boehringer light units (BLU); mean over the file's lines of this peptide [4]: 89
normalised SPOT signal, Boehringer light units (BLU); mean over the file's lines of this peptide [5]: 34.4
normalised SPOT signal, Boehringer light units (BLU); mean over the file's lines of this peptide [6]: 1530
normalised SPOT signal, Boehringer light units (BLU); mean over the file's lines of this peptide [7]: 100

B15: YDR017C 929-942 (peptide)
chain: MDKFRIPPKSPNIE
normalised SPOT signal, Boehringer light units (BLU); mean over the file's lines of this peptide [1]: 74.3
normalised SPOT signal, Boehringer light units (BLU); mean over the file's lines of this peptide [2]: 196
normalised SPOT signal, Boehringer light units (BLU); mean over the file's lines of this peptide [3]: 34.3
normalised SPOT signal, Boehringer light units (BLU); mean over the file's lines of this peptide [4]: 222
normalised SPOT signal, Boehringer light units (BLU); mean over the file's lines of this peptide [5]: 473
normalised SPOT signal, Boehringer light units (BLU); mean over the file's lines of this peptide [6]: 2100
normalised SPOT signal, Boehringer light units (BLU); mean over the file's lines of this peptide [7]: 3140

B16: YKL214C 53-66 (peptide)
chain: LYREREEPPLPKRI
normalised SPOT signal, Boehringer light units (BLU); mean over the file's lines of this peptide [1]: 18.3
normalised SPOT signal, Boehringer light units (BLU); mean over the file's lines of this peptide [2]: 2730
normalised SPOT signal, Boehringer light units (BLU); mean over the file's lines of this peptide [3]: 189
normalised SPOT signal, Boehringer light units (BLU); mean over the file's lines of this peptide [4]: 112
normalised SPOT signal, Boehringer light units (BLU); mean over the file's lines of this peptide [5]: 16200
normalised SPOT signal, Boehringer light units (BLU); mean over the file's lines of this peptide [6]: 11800
normalised SPOT signal, Boehringer light units (BLU); mean over the file's lines of this peptide [7]: 5980
